Source: paper PMC10611751 (2023)
Where two headings read alike, the source gives them in different places.

T1: Ankyrin-G 24 ANK repeats (residues 38-855) (UniProt O70511 38-855)
T1 chain: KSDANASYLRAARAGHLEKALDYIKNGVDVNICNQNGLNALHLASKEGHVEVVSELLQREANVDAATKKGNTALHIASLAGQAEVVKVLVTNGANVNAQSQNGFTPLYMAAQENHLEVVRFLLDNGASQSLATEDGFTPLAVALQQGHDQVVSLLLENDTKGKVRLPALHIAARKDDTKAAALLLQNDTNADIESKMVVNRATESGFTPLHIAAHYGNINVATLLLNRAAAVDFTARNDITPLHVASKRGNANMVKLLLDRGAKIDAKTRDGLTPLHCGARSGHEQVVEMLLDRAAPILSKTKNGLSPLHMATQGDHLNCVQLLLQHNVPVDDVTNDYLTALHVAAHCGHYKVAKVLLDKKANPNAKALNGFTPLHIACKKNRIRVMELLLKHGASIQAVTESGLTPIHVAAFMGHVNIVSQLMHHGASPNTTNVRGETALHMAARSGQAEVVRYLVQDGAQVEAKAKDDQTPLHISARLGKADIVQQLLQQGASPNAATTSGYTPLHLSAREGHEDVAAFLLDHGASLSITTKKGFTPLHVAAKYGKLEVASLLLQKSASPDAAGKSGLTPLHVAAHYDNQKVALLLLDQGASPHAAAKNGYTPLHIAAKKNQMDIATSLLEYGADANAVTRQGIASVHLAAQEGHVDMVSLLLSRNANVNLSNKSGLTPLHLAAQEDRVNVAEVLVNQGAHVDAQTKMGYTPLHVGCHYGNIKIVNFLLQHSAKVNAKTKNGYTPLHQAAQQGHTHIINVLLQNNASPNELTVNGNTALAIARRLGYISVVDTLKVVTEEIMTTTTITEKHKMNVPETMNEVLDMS

T2: full-length β-catenin 1-781 (mouse, UniProt Q02248 1-781)
T2 chain: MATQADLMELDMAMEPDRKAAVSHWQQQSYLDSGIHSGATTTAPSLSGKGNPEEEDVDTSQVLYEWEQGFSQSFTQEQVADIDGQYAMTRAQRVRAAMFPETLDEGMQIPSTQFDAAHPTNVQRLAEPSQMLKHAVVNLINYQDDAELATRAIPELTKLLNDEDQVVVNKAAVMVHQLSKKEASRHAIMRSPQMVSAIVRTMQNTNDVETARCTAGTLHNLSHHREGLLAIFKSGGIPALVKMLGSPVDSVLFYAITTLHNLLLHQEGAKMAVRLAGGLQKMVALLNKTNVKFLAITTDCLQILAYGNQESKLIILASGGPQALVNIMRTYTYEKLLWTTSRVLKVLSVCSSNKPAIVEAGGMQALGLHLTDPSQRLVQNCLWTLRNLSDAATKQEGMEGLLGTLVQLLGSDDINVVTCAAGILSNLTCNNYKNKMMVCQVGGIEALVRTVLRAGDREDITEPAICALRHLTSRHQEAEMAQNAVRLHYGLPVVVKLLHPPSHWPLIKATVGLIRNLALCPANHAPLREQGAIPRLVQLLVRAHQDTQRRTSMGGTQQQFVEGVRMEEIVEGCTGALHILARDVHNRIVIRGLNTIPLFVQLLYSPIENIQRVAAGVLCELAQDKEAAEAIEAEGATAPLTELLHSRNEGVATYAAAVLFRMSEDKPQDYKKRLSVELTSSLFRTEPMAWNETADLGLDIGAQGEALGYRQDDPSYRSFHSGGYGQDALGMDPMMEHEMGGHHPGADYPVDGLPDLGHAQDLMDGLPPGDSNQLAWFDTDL


What was measured:
Assay in all cases: ITC
[1] = target: T1, Ankyrin-G 24 ANK repeats (residues …)
[2] = target: T2, full-length β-catenin 1-781
[3] = target: T2, full-length β-catenin 1-781

Kd [1] [nM]	Binder	also measured
600	E-cadherin CTD–β-catenin complex (complex) chain 1: not shown chain 2: MATQADLMELDMAMEPDRKAAVSHWQQQSYLDSGIHSGATTTAPSLSGKGNPEEEDVDTSQVLYEWEQGFSQSFTQEQVADIDGQYAMTRAQRVRAAMFPETLDEGMQIPSTQFDAAHPTNVQRLAEPSQMLKHAVVNLINYQDDAELATRAIPELTKLLNDEDQVVVNKAAVMVHQLSKKEASRHAIMRSPQMVSAIVRTMQNTNDVETARCTAGTLHNLSHHREGLLAIFKSGGIPALVKMLGSPVDSVLFYAITTLHNLLLHQEGAKMAVRLAGGLQKMVALLNKTNVKFLAITTDCLQILAYGNQESKLIILASGGPQALVNIMRTYTYEKLLWTTSRVLKVLSVCSSNKPAIVEAGGMQALGLHLTDPSQRLVQNCLWTLRNLSDAATKQEGMEGLLGTLVQLLGSDDINVVTCAAGILSNLTCNNYKNKMMVCQVGGIEALVRTVLRAGDREDITEPAICALRHLTSRHQEAEMAQNAVRLHYGLPVVVKLLHPPSHWPLIKATVGLIRNLALCPANHAPLREQGAIPRLVQLLVRAHQDTQRRTSMGGTQQQFVEGVRMEEIVEGCTGALHILARDVHNRIVIRGLNTIPLFVQLLYSPIENIQRVAAGVLCELAQDKEAAEAIEAEGATAPLTELLHSRNEGVATYAAAVLFRMSEDKPQDYKKRLSVELTSSLFRTEPMAWNETADLGLDIGAQGEALGYRQDDPSYRSFHSGGYGQDALGMDPMMEHEMGGHHPGADYPVDGLPDLGHAQDLMDGLPPGDSNQLAWFDTDL	–
1200	E-cadherin 776-884–β-catenin complex (protein) chain 1: not shown chain 2: MATQADLMELDMAMEPDRKAAVSHWQQQSYLDSGIHSGATTTAPSLSGKGNPEEEDVDTSQVLYEWEQGFSQSFTQEQVADIDGQYAMTRAQRVRAAMFPETLDEGMQIPSTQFDAAHPTNVQRLAEPSQMLKHAVVNLINYQDDAELATRAIPELTKLLNDEDQVVVNKAAVMVHQLSKKEASRHAIMRSPQMVSAIVRTMQNTNDVETARCTAGTLHNLSHHREGLLAIFKSGGIPALVKMLGSPVDSVLFYAITTLHNLLLHQEGAKMAVRLAGGLQKMVALLNKTNVKFLAITTDCLQILAYGNQESKLIILASGGPQALVNIMRTYTYEKLLWTTSRVLKVLSVCSSNKPAIVEAGGMQALGLHLTDPSQRLVQNCLWTLRNLSDAATKQEGMEGLLGTLVQLLGSDDINVVTCAAGILSNLTCNNYKNKMMVCQVGGIEALVRTVLRAGDREDITEPAICALRHLTSRHQEAEMAQNAVRLHYGLPVVVKLLHPPSHWPLIKATVGLIRNLALCPANHAPLREQGAIPRLVQLLVRAHQDTQRRTSMGGTQQQFVEGVRMEEIVEGCTGALHILARDVHNRIVIRGLNTIPLFVQLLYSPIENIQRVAAGVLCELAQDKEAAEAIEAEGATAPLTELLHSRNEGVATYAAAVLFRMSEDKPQDYKKRLSVELTSSLFRTEPMAWNETADLGLDIGAQGEALGYRQDDPSYRSFHSGGYGQDALGMDPMMEHEMGGHHPGADYPVDGLPDLGHAQDLMDGLPPGDSNQLAWFDTDL	–
–	E-cadherin 776-884–AnkG R1-24 complex (complex) chain 1: not shown chain 2: KSDANASYLRAARAGHLEKALDYIKNGVDVNICNQNGLNALHLASKEGHVEVVSELLQREANVDAATKKGNTALHIASLAGQAEVVKVLVTNGANVNAQSQNGFTPLYMAAQENHLEVVRFLLDNGASQSLATEDGFTPLAVALQQGHDQVVSLLLENDTKGKVRLPALHIAARKDDTKAAALLLQNDTNADIESKMVVNRATESGFTPLHIAAHYGNINVATLLLNRAAAVDFTARNDITPLHVASKRGNANMVKLLLDRGAKIDAKTRDGLTPLHCGARSGHEQVVEMLLDRAAPILSKTKNGLSPLHMATQGDHLNCVQLLLQHNVPVDDVTNDYLTALHVAAHCGHYKVAKVLLDKKANPNAKALNGFTPLHIACKKNRIRVMELLLKHGASIQAVTESGLTPIHVAAFMGHVNIVSQLMHHGASPNTTNVRGETALHMAARSGQAEVVRYLVQDGAQVEAKAKDDQTPLHISARLGKADIVQQLLQQGASPNAATTSGYTPLHLSAREGHEDVAAFLLDHGASLSITTKKGFTPLHVAAKYGKLEVASLLLQKSASPDAAGKSGLTPLHVAAHYDNQKVALLLLDQGASPHAAAKNGYTPLHIAAKKNQMDIATSLLEYGADANAVTRQGIASVHLAAQEGHVDMVSLLLSRNANVNLSNKSGLTPLHLAAQEDRVNVAEVLVNQGAHVDAQTKMGYTPLHVGCHYGNIKIVNFLLQHSAKVNAKTKNGYTPLHQAAQQGHTHIINVLLQNNASPNELTVNGNTALAIARRLGYISVVDTLKVVTEEIMTTTTITEKHKMNVPETMNEVLDMS	Kd [2]: 80 nM
–	E-cadherin CTD–AnkG R1-24 complex (complex) chain 1: not shown chain 2: KSDANASYLRAARAGHLEKALDYIKNGVDVNICNQNGLNALHLASKEGHVEVVSELLQREANVDAATKKGNTALHIASLAGQAEVVKVLVTNGANVNAQSQNGFTPLYMAAQENHLEVVRFLLDNGASQSLATEDGFTPLAVALQQGHDQVVSLLLENDTKGKVRLPALHIAARKDDTKAAALLLQNDTNADIESKMVVNRATESGFTPLHIAAHYGNINVATLLLNRAAAVDFTARNDITPLHVASKRGNANMVKLLLDRGAKIDAKTRDGLTPLHCGARSGHEQVVEMLLDRAAPILSKTKNGLSPLHMATQGDHLNCVQLLLQHNVPVDDVTNDYLTALHVAAHCGHYKVAKVLLDKKANPNAKALNGFTPLHIACKKNRIRVMELLLKHGASIQAVTESGLTPIHVAAFMGHVNIVSQLMHHGASPNTTNVRGETALHMAARSGQAEVVRYLVQDGAQVEAKAKDDQTPLHISARLGKADIVQQLLQQGASPNAATTSGYTPLHLSAREGHEDVAAFLLDHGASLSITTKKGFTPLHVAAKYGKLEVASLLLQKSASPDAAGKSGLTPLHVAAHYDNQKVALLLLDQGASPHAAAKNGYTPLHIAAKKNQMDIATSLLEYGADANAVTRQGIASVHLAAQEGHVDMVSLLLSRNANVNLSNKSGLTPLHLAAQEDRVNVAEVLVNQGAHVDAQTKMGYTPLHVGCHYGNIKIVNFLLQHSAKVNAKTKNGYTPLHQAAQQGHTHIINVLLQNNASPNELTVNGNTALAIARRLGYISVVDTLKVVTEEIMTTTTITEKHKMNVPETMNEVLDMS	Kd [3]: 98 nM
